Laboratory results from the supplement of paper PMC9170038.

How the values were obtained:
Conditions in all cases: FMN input: 0 or 200 uM; Eterna round: R93 (includes R88 designs)
MS2 coat protein [1] = experiment: apparent KD of MS2 coat protein, switch ON state; designed switch direction (-1 OFF switch, 1 ON switch): 1; higher = weaker reporter binding
In short: (§1)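 The buffer was 100 mM Tris-HCl pH 7.5 with 80 mM KCl and 4 mM MgCl2, used without or with constant ligand. In it, RNA switches transcribed on-chip from Illumina sequencing clusters were titrated with SNAP-549-labelled MS2 coat protein in twofold steps from 0.7 or 1.5 nM to 3 µM. Apparent KD for each design is the median of its normalised cluster binding-curve fits.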

MS2 coat protein [2] = experiment: apparent KD of MS2 coat protein, switch OFF state (with FMN for OFF switches, without FMN for ON switches); designed switch direction (-1 OFF switch, 1 ON switch): 1; higher = weaker reporter binding
In short: as §1

MS2 coat protein [3] = experiment: apparent KD of MS2 coat protein, switch OFF state (with FMN for OFF switches, without FMN for ON switches); designed switch direction (-1 OFF switch, 1 ON switch): -1; higher = weaker reporter binding
In short: as §1

MS2 coat protein [4] = experiment: apparent KD of MS2 coat protein, switch ON state; designed switch direction (-1 OFF switch, 1 ON switch): -1; higher = weaker reporter binding
In short: as §1

Sequence	apparent KD of MS2 coat protein (MS2 coat protein [1])	apparent KD of MS2 coat protein (MS2 coat protein [2])	apparent KD of MS2 coat protein (MS2 coat protein [3])	apparent KD of MS2 coat protein (MS2 coat protein [4])
AAAAAAAAUGUGUAGGAUAUCAGUAAAAAUACAUGAGGAUCACCCAUGUUCAAAAAAAAAAAAACUGAGAAGGACGUGGAUGGUCC [Design 3]	0.0123 µM	0.0111 µM	–	–
AAAAAACAUGAGGAUCACCCAUGUAAAAAAAACACAGGAUAUCCCUUUAAAAAAAAAAAAGGAGAAGGGUGAAAAA [Nob's Hobby 4 - Jieux - Same State 1]	0.0204 µM	0.0234 µM	–	–
AAAAAACAUGAGGAUCACCCAUGUAAAAAAAACACAGGAUAUCCCUUUUUUAAAUAAAAAGGAGAAGGGUGAAAAA [Nob's Hobby 8 - Jieux - Same State 1]	0.0241 µM	0.0309 µM	–	–
AAAAAACAUGAGGAUCACCCAUGUAAAAAAAACACAGGAUAUCCCUUUUUUAAAUGGGAGGGAGAAGGGUGAAAAA [Nob's Hobby 12 - Jieux - Same State 1]	0.0174 µM	0.0293 µM	–	–
AAAAAACAUGAGGAUCACCCAUGUCAAAAGACAUGAGGAUAUGUACAGACUUCGGUCUGUACAGAAGGCAUGUAAA [SS1 - 1015]	0.0246 µM	0.273 µM	–	–
CUCUUGUGAGGAUAUGAAAGAAAAGAAAAGAAAGAAAAGAAUCAGAAGGCACAUGAGGAUCACCCAUGUAAGAA [EteRNA is fun!]	–	–	0.0797 µM	0.037 µM
CUCUUGUGAGGAUAUGCAAGAAAAGAAAAGAAAGAAAAGAAGCAGAAGGCACAUGAGGAUCACCCAUGUAAGAA [EteRNA is fun!]	–	–	0.0259 µM	0.0533 µM
GAAAAACAUGAGGAUCACCCAUGUAAGGAUAUGCUGAAAAACACGGAAAAAACGUGCAGCAGAAGGUACAAAAA [Mat - Exclusion 1 - Eli mod - D92]	–	–	0.0281 µM	0.0158 µM
GAAAAACAUGAGGAUCACCCAUGUCAGGAUAUACAAAAAUAAAUAAAAAUAAAAUAAAGUAGAAGGGACAAAAG [Mat - Same state - Mayanna Mod - D110]	–	–	0.0573 µM	0.0529 µM
GAAAAGAGAGGAUAUACUUUGGGAAAAGAAAAGAUGAUGUUACAUGAGGAUCACCCAUGUAGAAGGCUCAAAAA [Mat - Exclusion 2 - Mod - D156]	–	–	0.0446 µM	0.0271 µM
GAAAAGGUAGGAUAUACGAAAAAAAAGGGUAGAAAAAAAACACAUGAGGAUCACCCAUGUAGAAGGACCAAAAG [Mat - Exclusion 2 - Tesla mod - D30]	–	–	0.602 µM	0.0266 µM
GAAAAGUCAGGAUAUGUGGAAAAAAUAAAAAAAAUAAAAACACAGAAGGGACAUGAGGAUCACCCAUGUAAAAG [Mat - Exclusion 4 - Mayanna - D141]	–	–	0.0622 µM	0.101 µM
GAAAAGUCAGGAUAUGUGGAAAAAAUAAAAAAAAUAAAAACACAGAAGGGACAUGAGGAUCACCCAUGUUAAAA [Mat - Exclusion 4 - Mayanna - D137]	–	–	0.0288 µM	0.0524 µM
GAAAAGUGAGGAUAUUCGGAUAGGAAAACGAAAACCUAUCCGAAGAAGGCACAUGAGGAUCACCCAUGUGGAAA [Mat - Exaclusion 4 - Eli mod - D45]	–	–	0.0315 µM	0.0301 µM
GAAAAUCGAGGAUAUACAUGAGGAUCACCCAUGUCAAAAAAUGACUACACAAAAGAAAGUAGAAGGCGAUAAAG [Mat - Exclusion 3 - Mayanna mod - D130]	–	–	0.0312 µM	0.0288 µM
GAAAGGGCAGGAUAUGCGGAGAGAGAGAGAGAGAGAGAGAGACAUGAGGAUCACCCAUGUAGAAGGGCCGAAAG [salish99-ex2-08]	–	–	0.0386 µM	0.0369 µM
GAAGAACAUGAGGAUCACCCAUGUCAGGAUAUACAGAAGGGAAUAAUAUAAUCUGGAAGUAGAAGGGACAAGAA [Ex 1 May 45]	–	–	0.0514 µM	0.0318 µM
GAAGAACAUGAGGAUCACCCAUGUCAGGAUAUGAGCAAGGGAAUAAUAACUUGCGGAAUCAGAAGGGACAAGAA [Ex 1 May 51]	–	–	0.0436 µM	0.0317 µM
GACACCGGAGGAUAUACAAGUCCUUACUGUCUAAAACCAUGACAUGAGGAUCACCCAUGUAGAAGGCCGAAAAG [Atbela]	–	–	0.118 µM	0.0633 µM
GCAAAGUGAGGAUAUACGCGAACAAAAAAAAAAAAGAAAGCGUAGAAGGCACAUGAGGAUCACCCAUGUCCAGC [Alfred 64% 2]	–	–	0.0251 µM	0.0235 µM
GCUGGCCAAGGAUAUACAUGAGGAUCACCCAUGUGAGAGAAAAAAGUGAGAAAGAAAAGUAGAAGGUGGUUAGG [salish99-ex3-114]	–	–	0.041 µM	0.0439 µM
GCUGGGCAAGGAUAUACAUGAGGAUCACCCAUGUGAGAGAAAAAAGUGAGAAAGAAAAGUAGAAGGUGCUUAGG [salish99-ex3-119]	–	–	0.0779 µM	0.0458 µM

Sequence	apparent KD of MS2 coat protein (MS2 coat protein [1])	apparent KD of MS2 coat protein (MS2 coat protein [2])	apparent KD of MS2 coat protein (MS2 coat protein [3])	apparent KD of MS2 coat protein (MS2 coat protein [4])
GCUGUGGUAGGAUAUACAUGAGGAUCACCCAUGUGAGAGAAAAAAGUGAGAAAGAAAAGUAGAAGGACCGUAGG [salish99-ex3-101]	–	–	0.0789 µM	0.049 µM
GCUUGUCUAGGAUAUACAUGAGGAUCACCCAUGUGAGAGAAAAAAGUGAGAAAGAAAAGUAGAAGGAGGUGAGG [salish99-ex3-81]	–	–	0.0297 µM	0.0284 µM
GGAAAACAUGAGGAUCACCCAUGUGAGGAUAUCGAUGUCCAAAAAAGAGUGCGGGACUCGAGAAGGCACUUGGA [salish99-ex1-43]	–	–	0.0325 µM	0.0493 µM
GGAACACAUGAGGAUCACCCAUGUCAGGAUAUGUAGAUAAAAAGAAAAUAAAAUAAAAGCAGAAGGGACAAAAG [May 4]	–	–	0.0445 µM	0.0602 µM
GGAUGCCUAGGAUAUACAUGAGGAUCACCCAUGUGAGAGAAAAAAGUGAGAAAGAAAAGUAGAAGGAGGUGUCG [salish99-ex3-91]	–	–	0.0924 µM	0.038 µM
GGCUAGUCAGGAUAUACGAACAUGUCAAAAGACGUGAAGGGACAUGAGGAUCACCCAUGUAGAAGGGACUAGCA [salish99-ex2-12]	–	–	0.183 µM	0.0315 µM
GGUUGACAAGGAUAUACAUGAGGAUCACCCAUGUGAGAGAAAAAAGUGAGAAAGAAAAGUAGAAGGUGUUGACG [salish99-ex3-62]	–	–	0.085 µM	0.031 µM
GGUUGGCGAGGAUAUACAUGAGGAUCACCCAUGUGAGAAAAAAAAGUGAGAAAGAAAAGUAGAAGGCGCUGACG [salish99-ex3-49]	–	–	0.157 µM	0.0401 µM
GGUUGGGUAGGAUAUACAUGAGGAUCACCCAUGUGAGAGAAAAAAGUGAGAAAGAAAAGUAGAAGGGCUUGACG [salish99-ex3-67]	–	–	0.0587 µM	0.0803 µM
GUAAACCUAGGAUAUACAUGAGGAUCACCCAUGUAAAAUUUAAUAAAAAGAAAAUCAAGUAGAAGGAGGUAGAU [JR_Exc003_Sub1224]	–	–	0.0293 µM	0.0254 µM
GUAGAGUGAGGAUAUGAUUAAAAGAAGGGAAAGAGACAGCAUCAGAAGGCACAUGAGGAUCACCCAUGUAUGAA [JR_Exc004_Sub1224]	–	–	0.0271 µM	0.0269 µM
UAAAAACAUGAGGAUCACCCAUGUAAGGAUAUGCUGAAAAACACGGAAAAAACGUGCAGCAGAAGGUACAAAAU [Mat - Exclusion 1 - Eli mod - D98]	–	–	0.0476 µM	0.019 µM
UAAAACCUAGGAUAUACAUGAGGAUCACCCAUGUGGCACUCCGCAGGCAUUGUUCCCAGUAGAAGGAGGACACG [Inan]	–	–	0.0239 µM	0.0206 µM
UAAAACUUAGGAUAUACAUGAGGAUCACCCAUGUCAAGACAAGGAAGGUCCUAAGCCGGUAGAAGGAAGAAAAU [Bexeora]	–	–	0.0254 µM	0.0296 µM
UAAAGACAUGAGGAUCACCCAUGUGAGGAUAUCGGAGAUAACAGAACAUCAAGUUCAACGAGAAGGCACAGAAA [JR_Exc001_Sub401]	–	–	0.0947 µM	0.0474 µM
UAAAGACAUGAGGAUCACCCAUGUGAGGAUAUCGGAGAUAACAGAACAUCAAGUUCAGCGAGAAGGCACAGGAA [JR_Exc001_Sub403]	–	–	0.0655 µM	0.047 µM
UAAAGACAUGAGGAUCACCCAUGUGAGGAUAUCGGAGAUGACGGAACAUCAAGUUCGGCGAGAAGGCGCAGGAA [JR_Exc001_Sub406]	–	–	0.0307 µM	0.0309 µM
UAAAGACAUGAGGAUCACCCAUGUGAGGAUAUUGGUGACUAUAAAAAAAAAUAGUCACCGAGAAGGCAUAGGAA [JR_Exc001_Sub302]	–	–	0.0424 µM	0.031 µM
UACGUAUGAGGAUAUACAAACAGAAAAAUCAGACGUAAGUGACAUGAGGAUCACCCAUGUAGAAGGCAUAUGCA [JR_Exc002_Sub906]	–	–	0.0197 µM	0.0269 µM
UUAAUAGUAGGAUAUACAUGAGGAUCACCCAUGUAGCAACUACACAAAGGAACCUGAUGUAGAAGGACUUCCAG [Attionuson]	–	–	0.0136 µM	0.0124 µM
UUGGGACAUGAGGAUCACCCAUGUAAGGAUAUUGGCGCGCCGGCUCUGUCUGUUCCGCCGAGAAGGUACACGUU [Exclusion I]	–	–	0.102 µM	0.0455 µM
